The values that follow come from paper PMC9896932, “Apo and ligand-bound high resolution Cryo-EM structures of the human Kv3.1 channel reveal a novel binding site for positive modulators” (PNAS Nexus, 2022).

This data set deals with the molecule itself. Briefly: cryo-EM structure; purified flWT-Kv3.1a in LMNG 0.01%, Tris 20 mM pH 7.5, KCl 200 mM, DTT 1 mM; 2 mg/ml on the grid; apo (2.65 Å) and with 500 µM Lu AG00563 (3.0 Å), same organisation of subunits in both.

B1: wild type full length human Kv3.1 isoform a tetramer (natural protein, UniProt P48547 1-511, looked up)
chain: MGQGDESERIVINVGGTRHQTYRSTLRTLPGTRLAWLAEPDAHSHFDYDPRADEFFFDRHPGVFAHILNYYRTGKLHCPADVCGPLYEEELAFWGIDETDVEPCCWMTYRQHRDAEEALDSFGGAPLDNSADDADADGPGDSGDGEDELEMTKRLALSDSPDGRPGGFWRRWQPRIWALFEDPYSSRYARYVAFASLFFILVSITTFCLETHERFNPIVNKTEIENVRNGTQVRYYREAETEAFLTYIEGVCVVWFTFEFLMRVIFCPNKVEFIKNSLNIIDFVAILPFYLEVGLSGLSSKAAKDVLGFLRVVRFVRILRIFKLTRHFVGLRVLGHTLRASTNEFLLLIIFLALGVLIFATMIYYAERIGAQPNDPSASEHTHFKNIPIGFWWAVVTMTTLGYGDMYPQTWSGMLVGALCALAGVLTIAMPVPVIVNNFGMYYSLAMAKQKLPKKKKKHIPRPPQLGSPNYCKSVVNSPHHSTQSDTCPLAQEEILEINRAGRKPLRGMSI
notes: Kv3.1 (KCNC1), human, canonical isoform a, wild type, full length; C-terminal prescission 3C site followed by GFP, removed by HRV 3C protease on elution from the resin; The GFP tag was still on the protein when it was captured on the anti-GFP resin (co-purification statement); In the model residues 120-191, 218-239, 268-280, 295-311 and 372-376 were not built; also called flWT-Kv3.1a; Kv3.1a; …
Turning to B1, the “stoichiometry N” value amounted to 4.

In general, stoichiometry N refers to the number of molecules, sites or subunits per partner or assembly.
